Measured values as given in patent US5798442A, “Peptidyl derivatives as inhibitors of pro-apoptotic cysteine proteinases” (Merck Frosst Canada, Inc., priority 1995, dated 1998).

Substrate: CC(=O)N[C@@H](CC(=O)O)C(=O)N[C@@H](CCC(=O)O)C(=O)N[C@H](C(=O)N[C@@H](CC(=O)O)C(=O)Nc1ccc2c(C)cc(=O)oc2c1)C(C)C
Assay: continuous fluorometric assay with Ac-DEVD-AMC and purified apopain
Type: biochemical, human
Details: other: purified apopain, 25° C., pH 7.5

B1: apopain/CPP32 (Homo sapiens) (protein)
chain 1: SGISLDNSYKMDYPEMGLCIIINNKNFHKSTGMTSRSGTDVDAANLRETFRNLKYEVRNKNDLTREEIVELMRDVSKEDHSKRSSFVCVLLSHGEEGIIFGTNGPVDLKKITNFFRGDRCRSLTGKPKLFIIQACRGTELDCGIETD
chain 2: SGVDDDMACHKIPVEADFLYAYSTAPGYYSWRNSKDGSWFIQSLCAMLKQYADKLEFMHILTRVNRKVATEFESFSFDATFHAKKQIPCIVSMLTKELYFYH
notes: cleavage between Asp^28 -Ser^29 and Asp^175 -Ser^176; cleavage sites which yield the p17 and p12 subunits from the CPP32 proenzyme; endogenous in cells; host or cells: THP-1 cells (ATCC TIB 202)
Question: Which Km does the source give for B1 here?
Answer: The Km was 9.7 ± 1.0 µM.
